Here are results for 2 substances from publication PMC11559096.

Where only a bound is given, the exact number is not on record here.

Experiment [1] deals with MHV-2 S2 fragments made by trypsin after receptor binding (69 and 67 kDa) (mouse hepatitis virus type 2 (MHV-2)). Kind of experiment: SDS-PAGE of samples heated in 1% SDS (dissociation temperature of the trimer); MHV-2 with receptor, then trypsin at 37°C, in the presence of the HR2-peptide; 5 mM Pefabloc SC and 1% SDS on ice, then 10 min at the indicated temperatures; western blot with MAb10G; trimer to monomers.

Experiment [2] has the same target. The experiment can be described thus: SDS-PAGE of samples heated in 1% SDS (dissociation temperature of the trimer); post-fusion state (MHV-2 with receptor, then trypsin at 37°C), no HR2-peptide; 5 mM Pefabloc SC and 1% SDS on ice, then 10 min at the indicated temperatures; western blot with MAb10G; trimer to monomers. For orientation: A western blot detects proteins with antibodies after separation by electrophoresis.

In experiment [3] the target is MHV-2 spike (S) protein, uncleaved 180 kDa, on authentic virus (mouse hepatitis virus type 2 (MHV-2)). Kind of experiment: SDS-PAGE of samples heated in 1% SDS (dissociation temperature of the trimer); receptor-binding state (MHV-2 with soluble receptor), with or without HR2-peptide; 5 mM Pefabloc SC and 1% SDS on ice, then 10 min at the indicated temperatures; western blot with MAb10G; trimer to monomers.

For experiment [4] the target is unchanged. The experiment can be described thus: SDS-PAGE of samples heated in 1% SDS (dissociation temperature of the trimer); pre-fusion state (untreated MHV-2), with or without HR2-peptide; 5 mM Pefabloc SC and 1% SDS on ice, then 10 min at the indicated temperatures; western blot with MAb10G; trimer to monomers.

As to “MHV-2 S2 fragments made by trypsin after receptor binding (69 and 67 kDa) (domain or fragment)”, in experiment [1], the dissociation temperature of the trimer in 1% SDS stood at 80 °C. In experiment [2], the dissociation temperature of the trimer in 1% SDS is 100 °C and the stoichiometry N (as a rule, the number of molecules, sites or subunits per partner or assembly) came out at 3.

As to “MHV-2 spike (S) protein, uncleaved 180 kDa, on authentic virus (natural protein)”, in experiment [3], the dissociation temperature of the trimer in 1% SDS came out at 65 °C. In experiment [4], this substance showed a dissociation temperature of the trimer in 1% SDS of less than 25 °C and a stoichiometry N of 3.
